According to patent US20160272683A1 (Novo Nordisk, published 2016):
Numbered stars: 1 amine (or outer) side, 2 acyl side, 3 side chain; on linkers, the order of the positions; unused ones are H or OH. Ends that are not written are not given here. * marks the point of attachment. C20 diacid = O=C(O)CCCCCCCCCCCCCCCCCCC(=O)*; C18 diacid = O=C(O)CCCCCCCCCCCCCCCCC(=O)*; γGlu = O=C(O)[C@H](CCC(=O)[*:2])N[*:1]

T1: human calcitonin receptor on BHK570/CRE-luc cells (human, UniProt P30988 25-474)
T1 sequence (looked up): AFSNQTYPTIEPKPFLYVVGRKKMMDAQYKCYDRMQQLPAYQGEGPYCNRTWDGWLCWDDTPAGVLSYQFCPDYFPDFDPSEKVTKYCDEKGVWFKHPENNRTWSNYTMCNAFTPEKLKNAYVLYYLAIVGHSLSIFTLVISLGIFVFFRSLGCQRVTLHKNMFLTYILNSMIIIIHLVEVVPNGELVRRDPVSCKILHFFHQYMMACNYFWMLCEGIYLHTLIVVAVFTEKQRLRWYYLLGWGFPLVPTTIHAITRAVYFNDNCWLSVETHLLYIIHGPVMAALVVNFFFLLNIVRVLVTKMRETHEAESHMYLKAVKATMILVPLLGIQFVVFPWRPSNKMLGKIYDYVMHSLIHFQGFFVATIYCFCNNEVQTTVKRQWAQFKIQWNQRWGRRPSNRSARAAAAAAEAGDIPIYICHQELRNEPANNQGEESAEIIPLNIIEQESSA

T2: human amylin 3(a) receptor (human calcitonin receptor co-expressed with RAMP-3) on BHK570/CRE-luc cells (human, UniProt P30988 25-474; O60896 24-148)
T2 sequence (looked up) 1: T1 sequence (looked up)
T2 sequence (looked up) 2: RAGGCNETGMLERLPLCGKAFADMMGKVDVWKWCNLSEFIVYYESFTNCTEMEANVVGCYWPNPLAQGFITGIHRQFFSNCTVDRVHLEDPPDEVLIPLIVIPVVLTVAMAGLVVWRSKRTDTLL

T3: human amylin receptor (human calcitonin receptor + human RAMP3) (human) (UniProt P30988)
T3 sequence (looked up) 1: T1 sequence (looked up)
T3 sequence (looked up) 2: T2 sequence (looked up) 2

B1: [N-terminal(C20 diacid-gGlu), des1, 4G, 9T, 15Q, 21Q, 23Y, 25P, 30S, 31G, 32T, 33Y]mimylin (peptide)
peptide: {C20 diacid-γGlu}-ASGLSTATLGRLSQELHELQTYPPTETGSGTY-NH2
SMILES: CC(C)C[C@H](NC(=O)CNC(=O)[C@H](CO)NC(=O)[C@H](C)NC(=O)CC[C@H](NC(=O)CCCCCCCCCCCCCCCCCCC(=O)O)C(=O)O)C(=O)N[C@@H](CO)C(=O)N[C@H](C(=O)N[C@@H](C)C(=O)N[C@H](C(=O)N[C@@H](CC(C)C)C(=O)NCC(=O)N[C@@H](CCCNC(=N)N)C(=O)N[C@@H](CC(C)C)C(=O)N[C@@H](CO)C(=O)N[C@@H](CCC(N)=O)C(=O)N[C@@H](CCC(=O)O)C(=O)N[C@@H](CC(C)C)C(=O)N[C@@H](Cc1c[nH]cn1)C(=O)N[C@@H](CCC(=O)O)C(=O)N[C@@H](CC(C)C)C(=O)N[C@@H](CCC(N)=O)C(=O)N[C@H](C(=O)N[C@@H](Cc1ccc(O)cc1)C(=O)N1CCC[C@H]1C(=O)N1CCC[C@H]1C(=O)N[C@H](C(=O)N[C@@H](CCC(=O)O)C(=O)N[C@H](C(=O)NCC(=O)N[C@@H](CO)C(=O)NCC(=O)N[C@H](C(=O)N[C@@H](Cc1ccc(O)cc1)C(N)=O)[C@@H](C)O)[C@@H](C)O)[C@@H](C)O)[C@@H](C)O)[C@@H](C)O)[C@@H](C)O
B2: [N-terminal(C20 diacid-gGlu), 2L, 4G, 8L, 9V, 15Q, 21Q, 23Y, 27G, 30S, 31G, 32T, 33Y]mimylin (peptide)
peptide: {C20 diacid-γGlu}-ELSGLSTLVLGRLSQELHELQTYPRTGTGSGTY-NH2
SMILES: CC(C)C[C@H](NC(=O)CNC(=O)[C@H](CO)NC(=O)[C@H](CC(C)C)NC(=O)[C@H](CCC(=O)O)NC(=O)CC[C@H](NC(=O)CCCCCCCCCCCCCCCCCCC(=O)O)C(=O)O)C(=O)N[C@@H](CO)C(=O)N[C@H](C(=O)N[C@@H](CC(C)C)C(=O)N[C@H](C(=O)N[C@@H](CC(C)C)C(=O)NCC(=O)N[C@@H](CCCNC(=N)N)C(=O)N[C@@H](CC(C)C)C(=O)N[C@@H](CO)C(=O)N[C@@H](CCC(N)=O)C(=O)N[C@@H](CCC(=O)O)C(=O)N[C@@H](CC(C)C)C(=O)N[C@@H](Cc1c[nH]cn1)C(=O)N[C@@H](CCC(=O)O)C(=O)N[C@@H](CC(C)C)C(=O)N[C@@H](CCC(N)=O)C(=O)N[C@H](C(=O)N[C@@H](Cc1ccc(O)cc1)C(=O)N1CCC[C@H]1C(=O)N[C@@H](CCCNC(=N)N)C(=O)N[C@H](C(=O)NCC(=O)N[C@H](C(=O)NCC(=O)N[C@@H](CO)C(=O)NCC(=O)N[C@H](C(=O)N[C@@H](Cc1ccc(O)cc1)C(N)=O)[C@@H](C)O)[C@@H](C)O)[C@@H](C)O)[C@@H](C)O)C(C)C)[C@@H](C)O
B3: [N-terminal(C20 diacid-gGlu), des1, 4G, 9V, 15Q, 21Q, 23aQ, 23bT, 23cY, 30S, 31Q, 32T, 33Y]mimylin (peptide)
peptide: {C20 diacid-γGlu}-ASGLSTAVLGRLSQELHELQTLQTYPRTETGSQTY-NH2
SMILES: CC(C)C[C@H](NC(=O)CNC(=O)[C@H](CO)NC(=O)[C@H](C)NC(=O)CC[C@H](NC(=O)CCCCCCCCCCCCCCCCCCC(=O)O)C(=O)O)C(=O)N[C@@H](CO)C(=O)N[C@H](C(=O)N[C@@H](C)C(=O)N[C@H](C(=O)N[C@@H](CC(C)C)C(=O)NCC(=O)N[C@@H](CCCNC(=N)N)C(=O)N[C@@H](CC(C)C)C(=O)N[C@@H](CO)C(=O)N[C@@H](CCC(N)=O)C(=O)N[C@@H](CCC(=O)O)C(=O)N[C@@H](CC(C)C)C(=O)N[C@@H](Cc1c[nH]cn1)C(=O)N[C@@H](CCC(=O)O)C(=O)N[C@@H](CC(C)C)C(=O)N[C@@H](CCC(N)=O)C(=O)N[C@H](C(=O)N[C@@H](CC(C)C)C(=O)N[C@@H](CCC(N)=O)C(=O)N[C@H](C(=O)N[C@@H](Cc1ccc(O)cc1)C(=O)N1CCC[C@H]1C(=O)N[C@@H](CCCNC(=N)N)C(=O)N[C@H](C(=O)N[C@@H](CCC(=O)O)C(=O)N[C@H](C(=O)NCC(=O)N[C@@H](CO)C(=O)N[C@@H](CCC(N)=O)C(=O)N[C@H](C(=O)N[C@@H](Cc1ccc(O)cc1)C(N)=O)[C@@H](C)O)[C@@H](C)O)[C@@H](C)O)[C@@H](C)O)[C@@H](C)O)C(C)C)[C@@H](C)O
B4: [N-terminal(C20 diacid-gGlu), des1, 4G, 9V, 12K, 15Q, 21Q, 23Y, 25P, 30S, 31G, 32T, 33Y]mimylin (peptide)
peptide: {C20 diacid-γGlu}-ASGLSTAVLGKLSQELHELQTYPPTETGSGTY-NH2
SMILES: CC(C)C[C@H](NC(=O)CNC(=O)[C@H](CO)NC(=O)[C@H](C)NC(=O)CC[C@H](NC(=O)CCCCCCCCCCCCCCCCCCC(=O)O)C(=O)O)C(=O)N[C@@H](CO)C(=O)N[C@H](C(=O)N[C@@H](C)C(=O)N[C@H](C(=O)N[C@@H](CC(C)C)C(=O)NCC(=O)N[C@@H](CCCCN)C(=O)N[C@@H](CC(C)C)C(=O)N[C@@H](CO)C(=O)N[C@@H](CCC(N)=O)C(=O)N[C@@H](CCC(=O)O)C(=O)N[C@@H](CC(C)C)C(=O)N[C@@H](Cc1c[nH]cn1)C(=O)N[C@@H](CCC(=O)O)C(=O)N[C@@H](CC(C)C)C(=O)N[C@@H](CCC(N)=O)C(=O)N[C@H](C(=O)N[C@@H](Cc1ccc(O)cc1)C(=O)N1CCC[C@H]1C(=O)N1CCC[C@H]1C(=O)N[C@H](C(=O)N[C@@H](CCC(=O)O)C(=O)N[C@H](C(=O)NCC(=O)N[C@@H](CO)C(=O)NCC(=O)N[C@H](C(=O)N[C@@H](Cc1ccc(O)cc1)C(N)=O)[C@@H](C)O)[C@@H](C)O)[C@@H](C)O)[C@@H](C)O)C(C)C)[C@@H](C)O
B5: [N-terminal(C20 diacid-gGlu), des1, 4Q, 9V, 15Q, 16R, 19R, 21Q, 23Y, 27Q, 30S, 31Q, 32T, 33Y]mimylin (peptide)
peptide: {C20 diacid-γGlu}-ASQLSTAVLGRLSQRLHRLQTYPRTQTGSQTY-NH2
SMILES: CC(C)C[C@H](NC(=O)[C@H](CCCNC(=N)N)NC(=O)CNC(=O)[C@H](CC(C)C)NC(=O)[C@@H](NC(=O)[C@H](C)NC(=O)[C@@H](NC(=O)[C@H](CO)NC(=O)[C@H](CC(C)C)NC(=O)[C@H](CCC(N)=O)NC(=O)[C@H](CO)NC(=O)[C@H](C)NC(=O)CC[C@H](NC(=O)CCCCCCCCCCCCCCCCCCC(=O)O)C(=O)O)[C@@H](C)O)C(C)C)C(=O)N[C@@H](CO)C(=O)N[C@@H](CCC(N)=O)C(=O)N[C@@H](CCCNC(=N)N)C(=O)N[C@@H](CC(C)C)C(=O)N[C@@H](Cc1c[nH]cn1)C(=O)N[C@@H](CCCNC(=N)N)C(=O)N[C@@H](CC(C)C)C(=O)N[C@@H](CCC(N)=O)C(=O)N[C@H](C(=O)N[C@@H](Cc1ccc(O)cc1)C(=O)N1CCC[C@H]1C(=O)N[C@@H](CCCNC(=N)N)C(=O)N[C@H](C(=O)N[C@@H](CCC(N)=O)C(=O)N[C@H](C(=O)NCC(=O)N[C@@H](CO)C(=O)N[C@@H](CCC(N)=O)C(=O)N[C@H](C(=O)N[C@@H](Cc1ccc(O)cc1)C(N)=O)[C@@H](C)O)[C@@H](C)O)[C@@H](C)O)[C@@H](C)O
B6: [N-terminal(C20 diacid-gGlu), des1, 2L, 4Q, 8L, 9V, 15Q, 16R, 19R, 21Q, 23Y, 27Q, 30S, 31Q, 32T, 33Y]mimylin (peptide)
peptide: {C20 diacid-γGlu}-LSQLSTLVLGRLSQRLHRLQTYPRTQTGSQTY-NH2
SMILES: CC(C)C[C@H](NC(=O)CC[C@H](NC(=O)CCCCCCCCCCCCCCCCCCC(=O)O)C(=O)O)C(=O)N[C@@H](CO)C(=O)N[C@@H](CCC(N)=O)C(=O)N[C@@H](CC(C)C)C(=O)N[C@@H](CO)C(=O)N[C@H](C(=O)N[C@@H](CC(C)C)C(=O)N[C@H](C(=O)N[C@@H](CC(C)C)C(=O)NCC(=O)N[C@@H](CCCNC(=N)N)C(=O)N[C@@H](CC(C)C)C(=O)N[C@@H](CO)C(=O)N[C@@H](CCC(N)=O)C(=O)N[C@@H](CCCNC(=N)N)C(=O)N[C@@H](CC(C)C)C(=O)N[C@@H](Cc1c[nH]cn1)C(=O)N[C@@H](CCCNC(=N)N)C(=O)N[C@@H](CC(C)C)C(=O)N[C@@H](CCC(N)=O)C(=O)N[C@H](C(=O)N[C@@H](Cc1ccc(O)cc1)C(=O)N1CCC[C@H]1C(=O)N[C@@H](CCCNC(=N)N)C(=O)N[C@H](C(=O)N[C@@H](CCC(N)=O)C(=O)N[C@H](C(=O)NCC(=O)N[C@@H](CO)C(=O)N[C@@H](CCC(N)=O)C(=O)N[C@H](C(=O)N[C@@H](Cc1ccc(O)cc1)C(N)=O)[C@@H](C)O)[C@@H](C)O)[C@@H](C)O)[C@@H](C)O)C(C)C)[C@@H](C)O
B7: mimylin (peptide)
peptide: EASELSTAALGRLSAELHELATLPRTETGPESP-NH2
B8: [N-terminal(C18 diacid)]mimylin (peptide)
peptide: {C18 diacid}-EASELSTAALGRLSAELHELATLPRTETGPESP-NH2
SMILES: CC(C)C[C@H](NC(=O)[C@H](C)NC(=O)[C@H](C)NC(=O)[C@@H](NC(=O)[C@H](CO)NC(=O)[C@H](CC(C)C)NC(=O)[C@H](CCC(=O)O)NC(=O)[C@H](CO)NC(=O)[C@H](C)NC(=O)[C@H](CCC(=O)O)NC(=O)CCCCCCCCCCCCCCCCC(=O)O)[C@@H](C)O)C(=O)NCC(=O)N[C@@H](CCCNC(=N)N)C(=O)N[C@@H](CC(C)C)C(=O)N[C@@H](CO)C(=O)N[C@@H](C)C(=O)N[C@@H](CCC(=O)O)C(=O)N[C@@H](CC(C)C)C(=O)N[C@@H](Cc1c[nH]cn1)C(=O)N[C@@H](CCC(=O)O)C(=O)N[C@@H](CC(C)C)C(=O)N[C@@H](C)C(=O)N[C@H](C(=O)N[C@@H](CC(C)C)C(=O)N1CCC[C@H]1C(=O)N[C@@H](CCCNC(=N)N)C(=O)N[C@H](C(=O)N[C@@H](CCC(=O)O)C(=O)N[C@H](C(=O)NCC(=O)N1CCC[C@H]1C(=O)N[C@@H](CCC(=O)O)C(=O)N[C@@H](CO)C(=O)N1CCC[C@H]1C(N)=O)[C@@H](C)O)[C@@H](C)O)[C@@H](C)O

Each binder was assayed against T1, human calcitonin receptor on … (assay: cell-based or functional assay).

hCTR funct. EC50 (pM), tested with HSA	Binder
77 pM	B1
852 pM	B2
99 pM	B3
62 pM	B4
50 pM	B5
50 pM	B6

The binders below were run against T2, human amylin 3(a) receptor (human …) (assay: cell-based or functional assay).

hAmylin-R funct. EC50 (pM), tested with HSA	Binder
173 pM	B1
565 pM	B2
185 pM	B3
154 pM	B4
37 pM	B5
44 pM	B6

These binders were tested against T3, human amylin receptor (human calcitonin receptor + human RAMP3) (human) (assay: whole-cell competition vs 125I-rat amylin (Assay Va)).

IC50	Binder
0.511 nM	B7
0.902 nM	B8
